In the supplement of paper PMC10567573:

B1: MYOZ1 (parent)
chain: FSDSSMDHFQKFLPTVGGQLGTAG

Variants of: B1
Assay: protein stability index of a GFP-peptide fusion (GPS, HEK-293T) (PSI 1-6); higher = more stable
Settings: c terminus: a fixed tail appended
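Also: lentivirally expressed fusions sorted by FACS into six bins by GFP to DsRed ratio, PSI derived from sequencing read proportions per bin multiplied by bin number.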

Row | Variant | protein stability index
1 | FSDSSMDGFQKFLPTVGGQLGTAG | 2.07
2 | FSDSSMDCFQKFLPTVGGQLGTAG | 1.72
3 | FSDSSMDVFQKFLPTVGGQLGTAG | 1.76
4 | FSDSSMDIFQKFLPTVGGQLGTAG | 2.21
5 | FSDSSMDHFQKFLPTVGFQLGTAG | 1.51
6 | FSDSSMDHFQKFLPTVGIQLGTAG | 1.52
7 | FSDSSMDHFQKFLPTVGCQLGTAG | 2.04
8 | FSDSSMDHFQKFLPTVGLQLGTAG | 2.3
9 | FSDSSMDHFQKFLPTVGSQLGTAG | 2.48
10 | FSDSSMDHFQKFLPTVGAQLGTAG | 1.92
11 | FSDSSMDHFQKFLPTVGNQLGTAG | 2.67
12 | FSDSSMDHFQKFLPTVGYQLGTAG | 1.64
13 | FSDSSMDHFQKFLPTVGRQLGTAG | 2.79
14 | FSDSSMDHFQKFLPTVGWQLGTAG | 1.85
15 | FSDSWMDHFQKFLPTVGGQLGTAG | 2.38
16 | FSDSCMDHFQKFLPTVGGQLGTAG | 2.19
17 | FSDSKMDHFQKFLPTVGGQLGTAG | 2.07
18 | FSDSLMDHFQKFLPTVGGQLGTAG | 3.12
19 | FSDSQMDHFQKFLPTVGGQLGTAG | 2.19
20 | FSDKSMDHFQKFLPTVGGQLGTAG | 2.12
21 | FSDHSMDHFQKFLPTVGGQLGTAG | 2.35
22 | FSDFSMDHFQKFLPTVGGQLGTAG | 2.87
23 | FSDWSMDHFQKFLPTVGGQLGTAG | 2.89
24 | FSDPSMDHFQKFLPTVGGQLGTAG | 2.42

Row | Variant | protein stability index
25 | FSDDSMDHFQKFLPTVGGQLGTAG | 2.15
26 | FSDASMDHFQKFLPTVGGQLGTAG | 2.09
27 | FSDYSMDHFQKFLPTVGGQLGTAG | 1.61
28 | FSDTSMDHFQKFLPTVGGQLGTAG | 2.65
29 | FSDSSMDHFQKFLPTVGGQLSTAG | 1.69
30 | FSDSSMDHFQKFLPTVGGQLQTAG | 2.04
31 | FSDSSMDHFQKFLPTVGGQLNTAG | 2.98
32 | FSDSSMDHFQKFLPTVGGQLDTAG | 2.81
33 | FSDSSMDHFQKFLPTVGGQLTTAG | 2.13
34 | FSDSSMDHFQKFLPTVGGQLYTAG | 1.59
35 | FSDSSMDHFQKFLPTVGGQLCTAG | 1.61
36 | FSDSSMDHFQKFLPTVGGQLETAG | 2.35
37 | FSDSSMDHFQKFLPTVGGQLPTAG | 2.54
38 | FSDSSMDHFQKFLPTVGGQLWTAG | 1.76
39 | FSDSSMDHFQKFLPTVGGQLATAG | 1.87
40 | FDDSSMDHFQKFLPTVGGQLGTAG | 2.95
41 | FFDSSMDHFQKFLPTVGGQLGTAG | 1.62
42 | FMDSSMDHFQKFLPTVGGQLGTAG | 2.63
43 | FADSSMDHFQKFLPTVGGQLGTAG | 1.77
44 | FYDSSMDHFQKFLPTVGGQLGTAG | 1.83
45 | FSDSSMDHFQKFKPTVGGQLGTAG | 3.53
46 | FSDSSMDHFQKFSPTVGGQLGTAG | 2.76
47 | FSDSSMDHFQKFAPTVGGQLGTAG | 2.52
48 | FSDSSMDHFQKFQPTVGGQLGTAG | 3.18

Row | Variant | protein stability index
49 | FSDSSMDHFQKFGPTVGGQLGTAG | 3.44
50 | FSDSSMDHFQKFWPTVGGQLGTAG | 1.82
51 | FSDSSMDHFQKFVPTVGGQLGTAG | 2.97
52 | FSDSSMDHFQKFMPTVGGQLGTAG | 3.29
53 | FSDSSMDHFQKFNPTVGGQLGTAG | 3.1
54 | FSDSSMDHFQKFLPFVGGQLGTAG | 2.13
55 | FSDSSMDHFQKFLPQVGGQLGTAG | 2.94
56 | FSDSSMDHFQKFLPMVGGQLGTAG | 1.85
57 | FSDSSMDHFQKFLPWVGGQLGTAG | 1.33
58 | FSDSSMDHFQKFLPNVGGQLGTAG | 1.7
59 | FSDSSMDHFQKFLPYVGGQLGTAG | 1.93
60 | FSDSSMDHFQKFLPRVGGQLGTAG | 2.08
61 | FSDSSMDHFQKFLPVVGGQLGTAG | 2.66
62 | FSDSSMDHFQKFLPKVGGQLGTAG | 2.64
63 | FSDSSMDHFQKFLPTVGGQRGTAG | 2.98
64 | FSDSSMDHFQKFLPTVGGQPGTAG | 3.12
65 | FSDSSMDHFQKFLPTVGGQAGTAG | 2.58
66 | FSDSSMDHFQKFLPTVGGQHGTAG | 2.79
67 | FSDSSMDHFQKFLPTVGGQGGTAG | 3.24
68 | FSDSSMDHFQKFLPTVGGQFGTAG | 2.25
69 | FSDSSMDHFQKFLPTVGGQQGTAG | 2.66
70 | FSDSSMDHFQKFLPTVGGQKGTAG | 3.1
71 | FSDSSMDHFQKFLPTVGGQLGPAG | 2.15
72 | FSDSSMDHFQKFLPTVGGQLGKAG | 3.06

Row | Variant | protein stability index
73 | FSDSSMDHFQKFLPTVGGQLGRAG | 2.16
74 | FSDSSMDHFQKFLPTVGGQLGFAG | 1.82
75 | FSDSSMDHFQKFLPTVGGQLGEAG | 3.05
76 | FSDSSMDHFQKFLPTVGGQLGSAG | 2.19
77 | FSDSSMDHFQKFLPTVGGQLGCAG | 1.81
78 | FSDSSMDHFQKFLPTVGGQLGAAG | 2.29
79 | FSDSSMDHFQKFLPTVGGQLGTDG | 2.68
80 | FSDSSMDHFQKFLPTVGGQLGTWG | 2.01
81 | FSDSSMDHFQKFLPTVGGQLGTPG | 2.22
82 | FSDSSMDHFQKFLPTVGGQLGTIG | 1.91
83 | FSDSSMDHFQKFLPTVGGQLGTRG | 2.95
84 | FSDSSMDHFQKFLPTVGGQLGTKG | 2.14
85 | FSDSSMDHFQKFLPTVGGQLGTCG | 2.08
86 | FSDSSMDHFPKFLPTVGGQLGTAG | 3.23
87 | FSDSSMDHFEKFLPTVGGQLGTAG | 1.95
88 | FSDSSMDHFIKFLPTVGGQLGTAG | 2.91
89 | FSDSSMDHFVKFLPTVGGQLGTAG | 1.77
90 | FSDSSMDHFGKFLPTVGGQLGTAG | 2.57
91 | FSDSSMDHFHKFLPTVGGQLGTAG | 2.31
92 | FSDSSMDHFSKFLPTVGGQLGTAG | 2.07
93 | FSDSSMDHFCKFLPTVGGQLGTAG | 2.06
94 | FSDSSMDHFMKFLPTVGGQLGTAG | 2.02
